Measurements from the DeepSol protein solubility set.

Assay: soluble on expression in E. coli; label from the status in PepcDB or PDB records
In the case of “MHSAVFSPDAPYCGAAGSNHLCEAVALCQSILARYRRTGTSFSSTELKAIQALRTEFPDTAQEPAANSAASPDQTTKDFLSILDDATDVPHNPQNDIVAFVEECCDNTKEPTVLFAAINERISAVTCSRNVRTYMVIANDNLLWDPVNGVAALIDDVTPLGKCAQARNMLTIANTLYIPLWFRSELVGCVEVPGACIPRDKATCAQLLLRCVTVAVRNSINISIRKREANKIEAMVGMATRLARDTLEESVLVQSIINTAKTLTESDRCSIFLVKADGSLEAHFEDGNVVVLPAGTGIAGHVAESGAVVNIPNAYEDDRFHRSVDKVTGYHTRTILCLPIAFEGTIVAVAQLINKLDMVTQSGQRLPRVFGRRDEELFETFSMFAAASLRNCRINETLLKEKKKSDAILDVVALLSNTDIRDVDSIVRHVLHGAKKLLNADRSSMFLLDKERNELYSKMADSANEIRFPCGQGIAGTVAESGVGENIMDAYADSRFNSAVDRQLGYRTQSILCEPITLNGEVLAVVQLVNKLGDDGSVTCFTPMDRETFQVFSLFAGISINNSHLLEFAVNAGREAMTLSLQRNSITAQRAPKSVKVIAVTPEEREAVMSIDFGGAYDFTSPGFNLFEVREKYSEPMDAAAGVVYNLLWNSGLPEKFGCREQTLLNFILQCRRRYRRVPYHNFYHVVDVCQTLHTYLYTGKASELLTELECYVLLVTALVHDLDHMGVNNSFYLKTDSPLGILSSASGNNSVLEVHHCSLAIEILSDPAADVFEGLSGQDVAYAYRALIDCVLATDMAKHADALSRFTELATSGFEKDNDTHRRLVMETLIKAGDVSNVTKPFETSRMWAMAVTEEFYRQGDMEKEKGVEVLPMFDRSKNNELARGQIGFIDFVAGKFFRDIVGNLFHGMQWCVDTVNSNRAKWQEILDGRRDSIRSSIV”, the “soluble on expression in E. coli” value was “not soluble”. For “MISENYSRNLVGYGRNAPDPKWPGGARIAVQFVINYEEGGESCILDNDKASESLLSEIVGAQPWPGQRNLNMESIYEYGSRAGFWRLWRMFTGLGVTTTVYGVTAAMARNPEAVAAMKEAGWEIASHGYRWLEYKDFSEEEERKHIVEAVHLHTELTGERPYGMYQGKPSDNTLRLVMEEGGFLYSSDSYADDLPYWVKGVGDEPFLIIPYTLDTNDMRFATPQGFNSGDQFFTYLKDAFDVLYQEGVEGAPKMMSIGLHCRLVGRPGRAAALRRFIEYVLGHEKVWIPQRLEIARHWHEHHKPETP”, the “soluble on expression in E. coli” value was “not soluble”. With “MFEKVIKLWRDTFPKSEHKLMSIEYVAAIEEFNEYFPGYAAMNDSNYSKLQHFFRSLHPIGCIKPFRFHYSSAFALENSLDDYLLKNAQFKRDGLAGEWAIHIFADHNDHIIEKYRMYKKKRLEKLERTFEERKKKAER” the “soluble on expression in E. coli” value was “not soluble”. In the case of “FSDIASLQRFIKLNQSDWLFEMLATERFTSYFQPIVSIKDTSQIFGYESLLRGLDEEGNLMLPTPIMELATEAGLIPQLDQIARLSAITEFSRYKVSGHIFINFAPTSLYDPAFCLSSSVEAIDTAEISHDRVVFEVVESDNPQDLTHLKAVLKYYRDAGFLVALDDLGSGYSSLNLLHQLRPDFIKLDMELIRDVHQDLYKASITEKLLEITQKLNIQTVAEGIECIEELNWLRERGANLAQGYLIAKP”, the “soluble on expression in E. coli” value was “not soluble”. With “MQFIKNLQLNKKKDSDSSEQVLTNKKNKMKYEDFNFIRTLGTGSFGRVILATYKNGNYPPVAIKRFEKCKIIRQKQVDHVFSERKILNYINHPFCVNLHGSFKDDSYLYLVLEFVIGGEFFTFLRRNKRFPNDVGCFYAAQIVLIFEYLQSLNIVYRDLKPENLLLDKDGFIKMTDFGFAKIVETRTYTLCGTPEYIAPEILLNVGHGKAADWWTLGIFIYEILVGCPPFYANEPLLIYQKILEGIIYFPKFLDNNCKHLMKKLLSHDLTKRYGNLKKGAQNVKEHPWFSNIDWVNLLNKNVEVPYKPKYKNIFDSSNFERVQEDLTIADKITNENDPFYDW” the “soluble on expression in E. coli” value was “not soluble”. In the case of “MSHSQRGLNWFNALSADASEVTGLPASLKVADGLLGEQPVRFVAVIADTNNRFPRARQGEVGLLEGWGLAKAVDDAIEQDRERAEKRALIAIVDVPSQAYGRREEALGIHQALAGAVDSYARARLAGHPVIGLLVGKAMSGAFLAHGYQANRLIALRDPGVMVHAMGKASAARVTQRSVDDLEKLAASIAPMAYDIDSYASLGLLWETLSVSQIEQPAVDDLTQVRQVLSSAIKDVQASGVDLSSRLGASNRKASAHVRQLLRAQW”, the “soluble on expression in E. coli” value was “not soluble”. For “MSLNDDYPVVLAAPTGRASKRLQESTGLEAMTIHRLIGWNQDTKPEDILENEINARLIIIDEMSMVDTWLFHQFLSAVPLDAQLIFVGDEDQLPSVGPGQVFKDLIESKAIPRVNLTEVYRQQDGSSIIELAHRMKLGQKIDITQRFHDRSFINCQANQIPTVVEKVVTSAVNKGYTMADIQVLAPMYKGNAGIKRLNQVLQDILNPKKKDTREIEFGDVVFRKGDKVLQLVNRPNDNIFNGDIGVIVGIFWAKENALNKDVLVVDFEGNEITFTKQDMMELTHAYCTSIHKSQGSEFPIVIMPIVKQYFRMLQRPILYTGLTRAKTSLVLLGDPEAFDIGLKTNGQARLTQLCTLLKNYFNSEGHHHHHH”, the “soluble on expression in E. coli” value was “not soluble”. With “LDDYDWFAGNISRSQSEQLLRQKGKEGAFMVRNSSQVGMYTVSLFSKAVNDKKGTVKHYHVHTNAENKLYLAENYCFDSIPKLIHYHQHNSAGMITRLRHPVS” the “soluble on expression in E. coli” value was “soluble”. For “MRLLVADDHPLFRLGLKAALEAEGLEVVAEAGTGEEALVQALEKAPDAVLLDLRMPGMDGLTCARRLREMGYRGLVILLTTYQEPALLLEAYKAGADAYLSKELSAPELKRRLLRIRQGEERLTAPDIPALTPREEEVLRLLAEGLSTKEIARALRLSPETVRSHLESLYAKLEARNRVEALSRARSLGLLP”, the “soluble on expression in E. coli” value was “soluble”. In the case of “MAFVTTAEVCDANQELIRSGQLRALQPIFQIYGRRQIFSGPVVTVKVFEDNGLIRQFIEEKGNGRVLVVDGGGSQRCAILGGNPVVQAQNNGWAGIVVNGCIRDVDEINGCDIGVRALASHPIKASKKGLGEQRVPVNIAGTRICDGEWLYADTDGILVSQIELSV”, the “soluble on expression in E. coli” value was “soluble”. In the case of “SNAMKLALITDTSAYLPEAIENHEDVYVLDIPIIIDGKTYIEGQNLTLDQYYDKLAASKELPKTSQPSLAELDDLLCQLEKEGYTHVLGLFIAAGISGFWQNIQFLIEEHPNLTIAFPDTKITSAPQGNLVRNALMCSREGMDFDVIVNKIQSQIEKIEGFIVVNDLNHLVKGGRLSNGSAIIGNLLSIKPVLHFNEEGKIVVYEKVRTEKKALKRLAEIVKEMTADGEYDIAIIHSRAQDKAEQLYNLLAKAGLKDDLEIVSFGGVIATHLGEGAVAFGITPKN”, the “soluble on expression in E. coli” value was “soluble”. With “RTEAGDAYYSKFANNTPLPALMVSRKKFGSSYVYDKSYKTWDVPIAEQMEQKAKINIFAVAEYTDTQKIKVTVKGKILEGNTLPKSMVQVYLLEDKLIAPQVDGNTTVENYEHNHVLRGAVNGIWGEEFVNLKDYLYTYAVEPLSGMSFVAENYSIVAFVYDVQTFEVYDVVHVKINPQSDGK” the “soluble on expression in E. coli” value was “soluble”. For “MTNVFHHVRNFIEQQPAPAKTLEKSSSPNILYTALPKHWRSNKSFQEPFYVVLLTPVPDNTEVSIWAGNDEKPCEEVRNEKAKVHRQVAKFNDLRFVGRSGRGRKFHLTIVIHSAPMMVATVKNVIKVTVDGPRDARIPKPQGSLKRQAEQQTIFPNDIIRTPGPPMPMTMIPPPWFPLPMTQTFPPSFFPLISPGPHPSISAALWKIHSESMKTPIKQKVEQENVSLNTSTCLSSPSIFITPTSDDRKLKRPSSPRSITKSSETSINLIQETPESVESKRRRNVSITSSNSSSPTIWRPF”, the “soluble on expression in E. coli” value was “not soluble”. For “MAHHHHHHMLRRLGAGTNGQVRRSASSVSYGYLNLTVSDKIMPYVEGLKKKVIYVSSSKDCKAYVQEIQKGVQAGKINCIGLDVEGYKIGRNGTVSIIQVCTQDVYLFDLYKCDNSYLFVKCLKELLEDRRVIKITHDCREDCSILFNQYSICLNRTFDTQVAFNLLLKETKKDLYQISYDDLLYKCLLLNNKHKIYFHKMISLDQKIYLKRPIAKELIQYAIQDVIYLKPLMWSLVDRLLRVCKDGEAGREPFGEDGEARSNPFGEDGEARSNPFGEENPRSIKNGDDVMSEGAHSNLSEHKTNIIKRVTRLSERYINYQFLNTHVKNEKELQKGMTLDGMVVSCNNLNLYVKLNLSRRGVITNCMRNDFEIGDVVKCVILGFCNNDYIKLGLCDPSLCAVKREEGR”, the “soluble on expression in E. coli” value was “not soluble”. For “MEEWKTSFREIYGRSPTAGDISVAPNHIKAILQSEKKENDEKIEEKQAKRGVKRKNFEMKMMEGEQFSPIKKRVNLNQLGSENDKNPIPLRSSPRKKMIAIEVLPEKSMVSPKKKPVGSVPFEFDDFSPVKSYSASTSKSAVKSTLTPIKSPTKRAYQRPLRDLKMLLLPTPEKGQEVEGPVEEFDDETNEDVAKARSYNPAARKLGGSSKSDQNFQKINLRKKQFVRGKVTAEQKRKLKRKQMFKKKY”, the “soluble on expression in E. coli” value was “soluble”. In the case of “MGSDKIHHHHHHMLNKRAQILLKTLVERYISEGQPVGSRSLSKFSGLDLSAATIRNVMADLEDMGLVASPHASAGRIPTHQGYRFFVDTLLVVKPLDVIEIHQLQDQLHPDNPSRLINSASQLLAELTRFAGVVVSPKRNSAIFRYIEFMSLSEKRVLLIIVTPEGDVQNRVLFTDRNYSQSELTEAANFINHNYAGCAIDEIRTRLQSELKQLRQDMTSLMTAAIDAGDAAIRENSEAVIVAGERKLLDVQDLSSNMASLKKLFDLFERKTALLQLLEFSRKAEGVQIFIGEECGVVTMDEFSVVTAPYRVDGKMVGTVAVIGPTRMAYERVIPVVDMTARLLSSALSLH”, the “soluble on expression in E. coli” value was “not soluble”. For “MGSDKIHHHHHHMEDYEGKFSPSELKLKGIHTSTTFWTVGMIVQQYKNGHLVIPKIQRGYVWNEEKARRFIMSLLQGFPIPPIFIIELSGKFYVVDGQQRIRTILWFLGEDNELLEKLGPLRVPIKELAENYNEYGVTNLSEAIIKKIIFGNHPKEFNYKYFTKDFRQYFESLSIPVQHISISSGKEYILTDIFLRINQGSVKLSAMELWRVYYGKDIEEYFHKLNELARYTVAKIYEVSNGKISRQKLERFRIDEFILTFDVLINGLITPPNYIPKDAKLGAVIFSQKTTLKKVKIFVLENRRKVFKNNKGELKKFLDYLEREYKEILKMITYVLGEFTFRRPTIGNECQYALIRPSGNDINEAVFLYEVAIFKLLKDNGHSELIYENKDFIKHVILTSLIENDELFSRSTSTFRSVANKLELAKLTYKKIITKEDNITKDNLKRLLYEKFRASRVSNPVCPYCKEPISDISVADLAHIRPLAFGGQTYIHNLTLAHSTCNRRFGVRDISQYINRC”, the “soluble on expression in E. coli” value was “not soluble”. With “MSLITCSKCSRRAVIFQRHANRHLCKRHFIEDFERRVKLAVKKYDMIQKGDRIAIALSGGKDSVTLAFVLNKLYGFRSDLEFFAITIDEGIAGYRPPTVEIARKVTEQLGMEHLVVSFEENFGMTLDEMVKRGDKKPCTYCGVFRKYLLNRTAREMGATKLATGHNLDDETQTILLNFLNADMERMARLVPQRVQEGLVVRIKPFRYVYEKEVVVYGFLHELPMDFDECPYSHFPVRAAVRDFLYDFENKYPGRKFSVMSSFEKLIPCLKEIYPQIDLNRCERCGEPTPRRICQACKLLEELRGVDEGHHHHHH” the “soluble on expression in E. coli” value was “not soluble”. For “MGSDKIHHHHHHMYMEKRQFIKDIAVNGDVNGLFLIASANQMQAKNGPFWRLEICDASGTLNAKIWSPLSASFETLTPGDVVHLEGRAGLFRDRIDISVDRMRVLAPYELEALDMGQFLVSSERDPAEMLTELLELCREVFTHRPWRKFVTGVLRNEELAEALKAAPAAKSVHHAYRGGLLEHILSVSGLCMRIADHYPEIDRQVLLAGAIFHDIGKAWELSGGLVNDYTDEGRLLGHIHIGLEQLEPFLRRSGLEHELAVHFKHLILSHHGEYEFGSPRRPKTREAMVLHYADNLDAKMAQLNSLFKGFEDGETGWTPFQPTLQRFLYNPVRTPETETVRRKRPETPREEQCSLLSKG”, the “soluble on expression in E. coli” value was “not soluble”.
